Test results from paper PMC6910828.

Target: Cy3-labelled, prenylated Cdc42, wild type, GDP-bound
Assay: membrane extraction (wash-off) assay on supported lipid bilayers, TIRF; as above, GDI titrated between 0 and 20 µM; Koff of the GTPase from the membrane plotted against GDI concentration and fitted with a hyperbolic function (Kd, Vmax); apparent affinities

- fold reduction of the extraction of Cdc42:GDP against WT GDI: < 2 fold
Substance: Xenopus laevis RhoGDI E158/9Q (natural protein)
